± gives the uncertainty stated by the source.
Test: amyloid nucleation score (Sup35N fusion, yeast selection) (log enrichment); library NNK1; higher = more nucleation; inactive = no reads after selection
Procedure, shortened: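 Yeast lacking psi expressed peptides of 20 random codons fused to Sup35N, received 100 μM copper sulfate for 24 hours, and were then grown for 7 days at 30°C on medium lacking adenine and uracil. Illumina sequencing of input and output plasmid inserts provided the reads. Nucleation scores are DiMSum log enrichments of output over input, centred on the mode of non-aggregating sequences. Any sequence with under 100 input reads was excluded.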

Substance | amyloid nucleation score
APNTEMGFEGLRELQVLPVV | -0.854 ± 1.1
SLLCTIYRVCADPYMGQNMT | inactive
WPWHEHEQKWDKLCMLSWKR | inactive
AIDRRLYMGYSSWNEQDCEV | inactive
RKFVC | -0.729 ± 1.7
YVSYDQTNSAAYYVRVRLRF | 0.947 ± 0.73
GIYCLYFDILEVFLYTTTLS | 0.27 ± 0.42
DLGKVVNCYFLFYR | 1.51 ± 0.25
INELNTLLGI | 0.498 ± 0.97
MNTWDMSLIPWSLARWVNTA | 0.063 ± 0.4
GPILDSNKASIPIV | -0.322 ± 0.96
SYLQGELTDDSMTSFFKGM | -1.3 ± 1.4
SVAIASLFFLSFNFVDIRLL | 0.832 ± 0.15
MGFVGPENAKDYCSRGV | 0.357 ± 0.5
GRRRSDQASTVRRSLCEGMA | 0.451 ± 0.67
LRELSVCWPT | -0.153 ± 0.44
VPVLLNARIRI | -1.1 ± 0.81
TLSKVICVSPTVGMGLSSER | 0.616 ± 0.79
KFCLDLSYLFSSRTVMYEIV | -0.24 ± 0.26
KAVFDNLLTCPILVIGSTPA | -0.956 ± 0.93
DGRKG | 1.26 ± 0.66
YSRSGRTTNLAPNLHLRTMS | 0.136 ± 1.2
DADDLSIGAVNRTC | -0.066 ± 0.5
CLCVGDDGGADWNKVRVITS | 0.18 ± 0.61

Substance | amyloid nucleation score
YNSVLVTYYCKFSHTDSDSI | 3.04 ± 0.18
LLYSMDRQVLMSAISLLSIT | 0.903 ± 0.63
RSCLDGSRVMVSWR | 0.305 ± 0.46
TNVNF | -1.24 ± 0.74
VNLYGVLMGSLLGGQRQHDV | -1.1 ± 1.9
RNWDMGHKQP | 2.66 ± 0.12
FFKGGVNGIFINNGSTFG | 4.91 ± 0.067
GSGSAPCCTIAFMMLFGTEG | -0.057 ± 0.81
TMIDNPVYPSVFRVGHDTLV | 0.356 ± 0.3
GFWVWSSSRRCLIVRFQVMG | -0.373 ± 0.56
VCRQMYVLDCYS | inactive
CQVPSGESNDSPVLRHI | -0.138 ± 0.43
GLMLDLFVSSVYSIT | 0.655 ± 0.42
DPIRCMCVFMVHPCRCDID | 0.45 ± 1.1
CIDFKSSGAGSTMSWNLVFN | -0.188 ± 0.48
KRVSRNPNPGVV | -0.076 ± 0.56
MCPTLVLSA | inactive
SDTVWFPYKLITSLHQSAKW | 1.41 ± 0.14
RPYGVNR | -0.271 ± 0.66
LNDNLGSMFSL | -0.772 ± 0.64
QTSIWFGDYYRKLSLCWHRP | 3.63 ± 0.097
CVFYASTYVIPYNCENNFTI | 0.952 ± 0.26
KWVIGRTVLGRADVRWSSGR | 1.58 ± 0.46
PGNGTGVSTDGWVTLMHRRR | -0.709 ± 0.53

Substance | amyloid nucleation score
SYNQLDKCR | inactive
CRFPCSCHRWSMIRSVVCKR | 0.03 ± 0.97
KCYLLRKVGCWHQHLDGHFG | -0.429 ± 0.66
WLFLTYNVMGLKVGKFAGHT | -0.437 ± 0.42
YTYDLYVTSVLNVSRESSHC | -0.343 ± 1.4
SLLRRA | 0.575 ± 0.71
FNGRVRGYHSLDNVVHGRLY | 0.522 ± 0.58
SRVSLFGWSGFKFTSRDSWL | 3.51 ± 0.18
KCTELTTCRSPVMKGEAVWL | -0.052 ± 0.77
MDSCFVLAHVAGNRMVLWNA | 0.268 ± 0.43
NSFSDSHRWKPGRRNRCKRG | 1.07 ± 0.97
LPDTCCR | 0.994 ± 0.46
NSDKLPRCHLSLSYV | 0.994 ± 0.28
YGVRFGVFLSTCLNFSGEYR | -0.178 ± 0.42
VDLSLLIMVFQFGGVGERLR | 2.15 ± 0.17
DSWYRLLLARACNISHVRGR | -0.527 ± 0.48
RVGYIYHYYLDNQG | -0.175 ± 0.38
SYYYHV | 1.17 ± 0.66
MSRIEGHRLDVLSRHFR | -0.046 ± 0.32
YLKINTTYGCDI | 1.93 ± 0.34
NYFTRFVTGDGLSFLMRVAT | 0.487 ± 0.82
TAYIIKHSFWLGPFNLGSLM | 3.88 ± 0.12

From the supplement of paper PMC12042874
